Experimental data: PMC5046194

Biological target: recombinant Ku70 (human) (UniProt P12956)
Assay: not stated; complex of recombinant Ku70 and IN; method of the Kd not told

UniProt P12956, sequence (P12956 whole entry): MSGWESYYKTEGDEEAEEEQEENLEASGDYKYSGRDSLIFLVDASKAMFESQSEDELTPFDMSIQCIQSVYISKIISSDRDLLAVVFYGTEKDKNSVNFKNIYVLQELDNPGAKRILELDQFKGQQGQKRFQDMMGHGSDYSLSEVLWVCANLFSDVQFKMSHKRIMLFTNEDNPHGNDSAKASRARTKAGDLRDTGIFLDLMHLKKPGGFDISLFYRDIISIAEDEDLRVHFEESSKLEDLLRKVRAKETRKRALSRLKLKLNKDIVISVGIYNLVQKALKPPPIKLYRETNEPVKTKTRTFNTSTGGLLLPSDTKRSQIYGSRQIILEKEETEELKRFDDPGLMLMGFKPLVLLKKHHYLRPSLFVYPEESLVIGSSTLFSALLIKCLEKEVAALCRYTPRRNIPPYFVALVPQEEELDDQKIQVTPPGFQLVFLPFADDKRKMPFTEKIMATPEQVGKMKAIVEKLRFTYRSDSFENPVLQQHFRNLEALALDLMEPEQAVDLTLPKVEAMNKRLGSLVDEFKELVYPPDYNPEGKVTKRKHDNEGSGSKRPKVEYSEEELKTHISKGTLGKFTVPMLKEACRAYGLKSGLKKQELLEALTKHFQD

## recombinant His6-IN, wild type (HIV-1 integrase, abstract P13) (enzyme)
  Kd: 70 nM
